Experiments:
[1] = biological target: T1, P17-Fc fusion protein (human CD40 extracellular domain fused to human IgG1 Fc) (human, UniProt P25942 21-193, limits assumed); test: ELISA of Fab on P17-Fc
T1 construct: CD40 ECD at the N-terminus of the human IgG1 Fc; expressed in CHO-K cells; also called CD40 ECD-Fc fusion protein; CD40 antigen P17-Fc; not shown: human IgG1 Fc fragment

[2] = biological target: T2, cynomolgus monkey CD40 expressed on the cell surface (cynomolgus monkey, UniProt G7PG38 21-278); test: flow cytometry on CHO-K-cynoCD40 cells, APC anti-human F(ab')2 secondary antibody
T2 construct: also called CHO-K-cynoCD40 cells
T2 sequence (G7PG38 entry or part of it limits assumed): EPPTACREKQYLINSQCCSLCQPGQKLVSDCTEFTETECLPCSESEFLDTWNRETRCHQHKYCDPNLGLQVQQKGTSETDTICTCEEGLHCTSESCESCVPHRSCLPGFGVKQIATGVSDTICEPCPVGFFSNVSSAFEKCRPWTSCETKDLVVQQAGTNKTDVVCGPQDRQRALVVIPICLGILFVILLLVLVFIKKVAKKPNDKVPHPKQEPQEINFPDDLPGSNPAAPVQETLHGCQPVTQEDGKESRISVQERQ
Protocol: The CHO-K-huCD40 cells or CHO-K-cynoCD40 cells were seeded into a 96-well plate at 1.0×10⁵ cells/well, and diluted C8 anti-CD40 Fab candidate molecules were added. […] Then, the cells were washed, and the binding of the C8 anti-CD40 Fab candidate molecules to CD40 molecules expressed on the cell surface was detected by flow cytometry (Beckman Coulter).

T1 sequence (P25942 21-193 limits assumed): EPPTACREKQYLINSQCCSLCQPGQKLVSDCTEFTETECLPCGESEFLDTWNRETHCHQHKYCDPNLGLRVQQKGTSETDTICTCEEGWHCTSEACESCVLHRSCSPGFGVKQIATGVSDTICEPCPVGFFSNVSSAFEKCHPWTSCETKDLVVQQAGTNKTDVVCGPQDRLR

- EC50 [1]: ~0.476 µg/mL
- binding result [2]: binds
B1: C8 clone anti-CD40 Fab molecule (Fab, V domains shown)
VH: EVQLLESGGGLVRPGGSLRLSCAASGFTFGSYEMNWVRQAPGKGLEWVSYISSSGETTDYADSVKGRFTVSRDNSKNLLYLQMNSLRAEDTAVYYCARDVFFFDSSGDNGAYGMDVWGQGTMVTVSS
VL: DIQLTQSPSSLTASVGDRVTITCRSSQGIRSSLAWYQQKPGKPPKLLIYGASSLEGGVPSRFSGSGSGTDFTLTISSLQPEDFATYYCQQLNSFPSTFGQGTKLEIK
notes: Expressed as a Fab fragment in CHO-K cells; also called C8 Fab; C8 clone Fab
